# Measurements published in IntAct's records for PubMed 31515488.
# B1: Tuftelin-interacting protein 11 (Homo sapiens), Q9UBB9 (parent)
# chain: MSLSHLYRDGEGRIDDDDDERENFEITDWDLQNEFNPNRQRHWQTKEEATYGVWAERDSDDERPSFGGKRARDYSAPVNFISAGLKKGAAEEAELEDSDDEEKPVKQDDFPKDFGPRKLKTGGNFKPSQKGFAGGTKSFMDFGSWERHTKGIGQKLLQKMGYVPGRGLGKNAQGIINPIEAKQRKGKGAVGAYGSERTTQSMQDFPVVDSEEEAEEEFQKELSQWRKDPSGSKKKPKYSYKTVEELKAKGRISKKLTAPQKELSQVKVIDMTGREQKVYYSYSQISHKHNVPDDGLPLQSQQLPQSGKEAKAPGFALPELEHNLQLLIDLTEQEIIQNDRQLQYERDMVVNLFHELEKMTEVLDHEERVISNLSKVLEMVEECERRMQPDCSNPLTLDECARIFETLQDKYYEEYRMSDRVDLAVAIVYPLMKEYFKEWDPLKDCTYGTEIISKWKSLLENDQLLSHGGQDLSADAFHRLIWEVWMPFVRNIVTQWQPRNCDPMVDFLDSWVHIIPVWILDNILDQLIFPKLQKEVENWNPLTDTVPIHSWIHPWLPLMQARLEPLYSPIRSKLSSALQKWHPSDSSAKLILQPWKDVFTPGSWEAFMVKNIVPKLGMCLGELVINPHQQHMDAFYWVIDWEGMISVSSLVGLLEKHFFPKWLQVLCSWLSNSPNYEEITKWYLGWKSMFSDQVLAHPSVKDKFNEALDIMNRAVSSNVGAYMQPGARENIAYLTHTERRKDFQYEAMQERREAENMAQRGIGVAASSVPMNFKDLIETKAEEHNIVFMPVIGKRHEGKQLYTFGRIVIYIDRGVVFVQGEKTWVPTSLQSLIDMAK
# partner: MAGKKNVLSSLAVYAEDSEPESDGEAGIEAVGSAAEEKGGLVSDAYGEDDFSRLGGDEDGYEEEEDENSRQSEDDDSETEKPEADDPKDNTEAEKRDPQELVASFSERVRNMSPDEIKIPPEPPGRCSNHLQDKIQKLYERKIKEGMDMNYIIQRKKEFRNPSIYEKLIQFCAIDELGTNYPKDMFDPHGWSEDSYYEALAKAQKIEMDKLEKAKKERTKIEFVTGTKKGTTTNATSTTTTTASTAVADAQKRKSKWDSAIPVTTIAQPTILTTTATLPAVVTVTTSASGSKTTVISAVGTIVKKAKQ
# B2: Isoform 1 of Mothers against decapentaplegic homolog 3 (Homo sapiens), P84022-1 (parent)
# chain: MSSILPFTPPIVKRLLGWKKGEQNGQEEKWCEKAVKSLVKKLKKTGQLDELEKAITTQNVNTKCITIPRSLDGRLQVSHRKGLPHVIYCRLWRWPDLHSHHELRAMELCEFAFNMKKDEVCVNPYHYQRVETPVLPPVLVPRHTEIPAEFPPLDDYSHSIPENTNFPAGIEPQSNIPETPPPGYLSEDGETSDHQMNHSMDAGSPNLSPNPMSPAHNNLDLQPVTYCEPAFWCSISYYELNQRVGETFHASQPSMTVDGFTDPSNSERFCLGLLSNVNRNAAVELTRRHIGRGVRLYYIGGEVFAECLSDSAIFVQSPNCNQRYGWHPATVCKIPPGCNLKIFNNQEFAALLAQSVNQGFEAVYQLTRMCTIRMSFVKGWGAEYRRQTVTSTPCWIELHLNGPLQWLDKVLTQMGSPSIRCSSVS
# B3: Tektin-4 (Homo sapiens), Q8WW24 (parent)
# chain: MAQTVPPCELPCKEYDVARNTGAYTSSGLATASFRTSKYLLEEWFQNCYARYHQAFADRDQSERQRHESQQLATETQALAQRTQQDSTRTVGERLQDTHSWKSELQREMEALAAETNLLLAQKQRLERALDATEVPFSITTDNLQCRERREHPNLVRDHVETELLKEAELIRNIQELLKRTIMQAVSQIRLNREHKETCEMDWSDKMEAYNIDETCGRHHSQSTEVQAHPYSTTFQESASTPETRAKFTQDNLCRAQRERLASANLRVLVDCILRDTSEDLRLQCDAVNLAFGRRCEELEDARYKLHHHLHKTLREITDQEHNVAALKQAIKDKEAPLHVAQTRLYLRSHRPNMELCRDAAQFRLLSEVEELNMSLTALREKLLEAEQSLRNLEDIHMSLEKDIAAMTNSLFIDRQKCMAHRTRYPTILQLAGYQ
# partner: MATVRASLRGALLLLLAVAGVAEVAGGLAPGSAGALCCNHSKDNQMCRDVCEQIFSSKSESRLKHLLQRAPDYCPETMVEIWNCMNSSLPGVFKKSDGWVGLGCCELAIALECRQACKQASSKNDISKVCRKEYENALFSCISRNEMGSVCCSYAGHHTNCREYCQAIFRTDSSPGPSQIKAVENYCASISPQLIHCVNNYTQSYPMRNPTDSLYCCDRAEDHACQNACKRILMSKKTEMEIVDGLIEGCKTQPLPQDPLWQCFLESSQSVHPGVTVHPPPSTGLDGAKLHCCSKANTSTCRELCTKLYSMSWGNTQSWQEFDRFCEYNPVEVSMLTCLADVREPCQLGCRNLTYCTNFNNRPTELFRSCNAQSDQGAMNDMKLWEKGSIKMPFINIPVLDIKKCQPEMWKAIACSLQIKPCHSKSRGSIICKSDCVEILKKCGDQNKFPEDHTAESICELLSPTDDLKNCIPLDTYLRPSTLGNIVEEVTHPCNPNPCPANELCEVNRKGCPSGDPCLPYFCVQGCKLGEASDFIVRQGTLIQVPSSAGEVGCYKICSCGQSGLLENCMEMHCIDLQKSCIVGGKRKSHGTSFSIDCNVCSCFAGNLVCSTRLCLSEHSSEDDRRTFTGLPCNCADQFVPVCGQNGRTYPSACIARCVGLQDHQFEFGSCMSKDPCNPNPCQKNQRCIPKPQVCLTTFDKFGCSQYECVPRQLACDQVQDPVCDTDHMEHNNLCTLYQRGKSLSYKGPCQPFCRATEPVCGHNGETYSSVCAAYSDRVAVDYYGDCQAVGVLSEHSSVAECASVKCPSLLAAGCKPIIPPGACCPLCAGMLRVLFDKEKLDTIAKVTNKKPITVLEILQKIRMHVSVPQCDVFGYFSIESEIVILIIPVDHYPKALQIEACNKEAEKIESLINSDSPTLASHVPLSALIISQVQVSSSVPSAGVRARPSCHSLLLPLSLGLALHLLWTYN
# Variants of: B1
# Conditions: with SAP30BP
row,Variant,effect of a mutation on the interaction
1,S688L,with no effect

# Variants of: B2
# Conditions: with smad4_human SMAD4, Q13485
# Chain of smad4_human SMAD4, Q13485 (Q13485 whole entry): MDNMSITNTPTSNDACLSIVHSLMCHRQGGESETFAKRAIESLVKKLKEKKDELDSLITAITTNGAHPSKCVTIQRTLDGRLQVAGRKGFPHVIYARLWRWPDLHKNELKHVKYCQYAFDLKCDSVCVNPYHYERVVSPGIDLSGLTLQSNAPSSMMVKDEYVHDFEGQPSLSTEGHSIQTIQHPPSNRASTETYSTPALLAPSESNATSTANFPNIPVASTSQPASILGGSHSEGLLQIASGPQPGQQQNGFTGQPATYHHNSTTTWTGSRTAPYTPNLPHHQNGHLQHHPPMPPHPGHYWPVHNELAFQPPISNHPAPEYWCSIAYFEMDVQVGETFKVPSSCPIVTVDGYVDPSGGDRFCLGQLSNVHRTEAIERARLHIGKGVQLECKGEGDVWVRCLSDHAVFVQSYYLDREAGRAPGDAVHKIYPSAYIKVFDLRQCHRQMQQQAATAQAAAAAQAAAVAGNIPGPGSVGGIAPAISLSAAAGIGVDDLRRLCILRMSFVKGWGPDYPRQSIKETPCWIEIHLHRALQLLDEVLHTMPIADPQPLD
row,Variant,effect of a mutation on the interaction
1,P393L,with no effect

# Variants of: B2
# Conditions: with smad4_human SMAD4, Q13485
# Remark: another data set of the same source
row,Variant,effect of a mutation on the interaction
1,I170V,with no effect

# Variants of: B2
# Conditions: with ccd33_human CCDC33, Q8N5R6
# Chain of ccd33_human CCDC33, Q8N5R6 (Q8N5R6 whole entry): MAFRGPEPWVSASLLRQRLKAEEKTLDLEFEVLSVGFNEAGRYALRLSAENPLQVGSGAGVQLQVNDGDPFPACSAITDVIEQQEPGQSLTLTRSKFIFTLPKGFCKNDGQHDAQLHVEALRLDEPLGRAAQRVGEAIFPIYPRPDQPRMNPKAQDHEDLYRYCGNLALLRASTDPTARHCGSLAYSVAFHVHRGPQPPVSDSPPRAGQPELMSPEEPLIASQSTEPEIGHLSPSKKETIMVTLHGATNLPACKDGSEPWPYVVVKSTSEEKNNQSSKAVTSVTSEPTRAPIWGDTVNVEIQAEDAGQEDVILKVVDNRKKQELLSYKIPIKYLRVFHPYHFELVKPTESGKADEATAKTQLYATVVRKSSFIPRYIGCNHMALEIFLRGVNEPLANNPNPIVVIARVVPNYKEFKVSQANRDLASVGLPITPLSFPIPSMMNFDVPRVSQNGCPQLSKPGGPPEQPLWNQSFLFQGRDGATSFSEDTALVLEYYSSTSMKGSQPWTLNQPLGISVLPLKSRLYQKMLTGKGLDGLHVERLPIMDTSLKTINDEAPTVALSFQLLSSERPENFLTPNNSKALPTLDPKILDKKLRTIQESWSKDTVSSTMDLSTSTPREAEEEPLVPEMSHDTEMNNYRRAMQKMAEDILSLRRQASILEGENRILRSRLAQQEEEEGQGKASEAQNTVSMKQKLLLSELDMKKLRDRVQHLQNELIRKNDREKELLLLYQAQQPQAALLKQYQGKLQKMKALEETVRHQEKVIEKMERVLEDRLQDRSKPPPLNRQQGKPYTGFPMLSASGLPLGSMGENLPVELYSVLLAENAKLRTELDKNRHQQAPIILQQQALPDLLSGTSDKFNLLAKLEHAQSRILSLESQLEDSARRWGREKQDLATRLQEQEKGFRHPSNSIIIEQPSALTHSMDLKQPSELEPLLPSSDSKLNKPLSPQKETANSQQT
row,Variant,effect of a mutation on the interaction
1,I170V,with no effect

# Variants of: B3
# Conditions: with reck_human RECK
row,Variant,effect of a mutation on the interaction
1,R64W,with no effect
2,A80V,with no effect
3,R255C,with no effect
4,M374T,with no effect
5,S100G,with no effect
6,R82C,with no effect

# Results, then the variant that gave them:
row,effect of a mutation on the interaction,Variant
1,with no effect,M374V
2,disrupting interaction strength,I404T
